Test results reported in patent publication US20020062500A1, “Hypersensitive response eliciting domains and use thereof” (priority 2000, published 2002).
Ends that are not written are not given here. Peptide text beside a SMILES is read from it.

Columns and labels:
[1] = Solubility of expressed or synthesized polypeptides; assay type: physicochemical
Procedure: For proteins expressed in E. coli that were difficult to dissolve in water, total cells were resuspended and sonicated in 8 M urea buffer (0. IM Na-phosphate, 10 mM Tris buffer, pH8.0). The total cell lysate was centrifuged, and supernatants were collected. Ni-agarose was added into the supernatants and mixed gently at room temperature for 30 min. The Ni-agarose resin was washed with buffer (8 M urea, 0.1 M Na-phosphate, 10 mM Tris buffer, pH6.3). The proteins were eluted with elution buffer (8 M urea, 0.1 M EDTA, 0.1 M Na-phosphate, 10 mM Tris buffer, pH 6.3) and dialyzed against buffer (pH 8.5, 10 mM Tris) with stepwise decreased urea. If the proteins still were insoluble in buffer, the solution pH was adjusted to 9 to 11 and sonicated at room temperature for 1 to 5 min.
Chemically synthesized polypeptides were dissolved in 10 mM Tris, pH 6.5 to 11 buffers depending on their solubility.

[2] = tested on: tobacco leaves (cv. Xanth); conditions: in vivo
[3] = description of known elicitors; cited from earlier work
[4] = cited from earlier work; for heat stable (description): description of known elicitors
[5] = description of known elicitors; cited from earlier work; remark: listed apart in the source
tobacco = conditions: in vivo; cited from earlier work
TMV = assay: Percentage of TMV reduction on tobacco leaves; assay type: in vivo
tomato = assay: Plant growth enhancement with tomato; assay type: in vivo; conditions: 10 μg/ml

## CSCC[C@H](NC(=O)[C@H](CCSC)NC(=O)[C@H](CO)NC(=O)[C@H](CCSC)NC(=O)[C@H](CCSC)NC(=O)[C@H](CCSC)NC(=O)[C@H](CCSC)NC(=O)[C@H](CCSC)NC(=O)CNC(=O)[C@@H](NC(=O)[C@H](CC(C)C)NC(=O)[C@H](CC(C)C)NC(=O)CNC(=O)[C@H](C)NC(=O)[C@H](CC(C)C)NC(=O)[C@H](CCC(N)=O)NC(=O)[C@H](CC(N)=O)NC(=O)[C@@H](NC(=O)[C@@H](NC(=O)[C@H](CC(=O)O)NC(=O)[C@H](CC(N)=O)NC(=O)[C@H](CCC(N)=O)NC(=O)[C@H](CC(N)=O)NC(=O)CNC(=O)CNC(=O)CNC(=O)[C@H](CC(C)C)NC(=O)CN)[C@@H](C)O)C(C)C)[C@@H](C)O)C(=O)O [HrpNEa4370] (H-GLGGGNQNDTVNQLAGLLTGMMMMMSMM-OH; N-terminus and C-terminus assumed)
[1]; Table 4, synthesized peptide, cell wraps over two lines 'Partial' 'soluble'
  Solubility (Source column: Partial soluble): Partial

## (NC): Superharpin building block HrpNEa140-180 with his-tag leader (QNDDSTSGTDSTSDSSDPMQQLLKMFSEIMQSLFGDGQDGT; also: His-tag leader; UniProt Q01099 140-180, looked up, fragment)
[1]; Table 7, building blocks with his-tag leader
  Soluble: Yes

## HrpNEa137180: E. coli expressed peptide, amino acids 137-180 of HrpNEa, His-tag fusion (STSQNDDSTSGTDSTSDSSDPMQQLLKMFSEIMQSLFGDGQDGT; also: His-tag fusion; UniProt Q01099 137-180, looked up, fragment)
[2]
  HR activity in tobacco: elicit HR activity
  HR* (eliciting concentration): <5 µg/mL

## HrpNEa140176: Synthesized peptide, amino acids 140-176 of HrpNEa, acidic plus helix units (QNDDSTSGTDSTSDSSDPMQQLLKMFSEIMQSLFGDG; UniProt Q01099 140-176, looked up, fragment)
[2]
  HR activity (eliciting concentration): + < 5 μg/ml
  HR activity in tobacco: full activity of HR
  HR* (eliciting concentration): <5 µg/mL

## SEQ. ID. No. 8: Protein encoded by the dspE gene of Erwinia amylovora, about 198 kDa
[3]
  pI (description): 8.98

## hypersensitive response elicitor polypeptide or protein from Xanthomonas campestris pv. pelargonii: 20 kDa elicitor that includes the amino acid sequence of SEQ. ID. No. 18 (SSQQSPSAGSEQQLDQLLAM; Xanthomonas campestris pv. pelargonii)
[4]
  heat stable (description): heat stable
[5]
  protease sensitive: protease sensitive

B1: HrpWEa: Harpin protein from E. amylovora, subfamily W, 447 amino acids (protein, listed as Erwinia amylovora)
chain: MSILTLNNNTSSSPGLFQSGGDNGLGGHNANSALGQQPIDRQTIEQMAQLLAELLKSLLSPQSGNAATGAGGNDQTTGVGNAGGLNGRKGTAGTTPQSDSQNMLSEMGNNGLDQAITPDGQGGGQIGDNPLLKAMLKLIARMMDGQSDQFGQPGTGNNSASSGTSSSGGSPFNDLSGGKAPSGNSPSGNYSPVSTFSPPSTPTSPTSPLDFPSSPTKAAGGSTPVTDHPDPVGSAGIGAGNSVAFTSAGANQTVLHDTITVKAGQVFDGKGQTFTAGSELGDGGQSENQKPLFILEDGASLKNVTMGDDGADGIHLYGDAKIDNLHVTNVGEDAITVKPNSAGKKSHVEITNSSFEHASDKILQLNADTNLSVDNVKAKDFGTFVRTNGGQQGNWDLNLSHISAEDGKFSFVKSDSEGLNVNTSDISLGDVENHYKVPMSANLKVAE
[4]
  heat stable (description): heat stable
[5]
  protease sensitive: protease sensitive

B2: amino acids 137 to 204 of HrpNEa: HR active fragment of HrpNEa isolated after digestion with protease (protein, UniProt Q01099 137-204, looked up, fragment)
chain: STSQNDDSTSGTDSTSDSSDPMQQLLKMFSEIMQSLFGDGQDGTQGSSSGGKQPTEGEQNAYKKGVTD
tobacco
  HR elicitation (literature): hypersensitive response active

B3: 98 residue of N-terminal HrpNEa fragment: Smallest bacterially produced HrpNEa peptide with HR-eliciting activity (Laby 1997) (protein, UniProt Q01099 1-98, looked up, fragment)
chain: MSLNTSGLGASTMQISIGGAGGNNGLLGTSRQNAGLGGNSALGLGGGNQNDTVNQLAGLLTGMMMMMSMMGGGGLMGGGLGGGLGNGLGGSGGLGEGL
tobacco
  HR elicitation (literature): displayed HR-eliciting activity

B4: HrpNEa: Harpin hypersensitive response elicitor protein from E. amylovora, 403 amino acids (protein, listed as Erwinia amylovora)
chain: MSLNTSGLGASTMQISIGGAGGNNGLLGTSRQNAGLGGNSALGLGGGNQNDTVNQLAGLLTGMMMMMSMMGGGGLMGGGLGGGLGNGLGGSGGLGEGLSNALNDMLGGSLNTLGSKGGNNTTSTTNSPLDQALGINSTSQNDDSTSGTDSTSDSSDPMQQLLKMFSEIMQSLFGDGQDGTQGSSSGGKQPTEGEQNAYKKGVTDALSGLMGNGLSQLLGNGGLGGGQGGNAGTGLDGSSLGGKGLQNLSGPVDYQQLGNAVGTGIGMKAGIQALNDIGTHRHSSTRSFVNKGDRAMAKEIGQFMDQYPEVFGKPQYQKGPGQEVKTDDKSWAKALSKPDDDGMTPASMEQFNKAKGMIKRPMAGDTGNGNLQARGAGGSSLGIDAMMAGDAINNMALGKLGAA
[2]
  Elicit HR: 1—3 μg/ml
TMV; 1 μg/ml
  % TMV reduction on tobacco: 10%
TMV; 10 μg/ml
  % TMV reduction on tobacco: 55%
tomato
  % Plant Growth Enhancement: 11.68%
[1]; Table 8
  Soluble: Yes
[4]; 100° C.
  heat stable at 100° C.: at least 10 minutes
[3]
  pI (description): approximately 4.3

B5: SEQ. ID. No. 10: Protein encoded by the dspF gene, about 16 kDa (protein, listed as Erwinia amylovora)
chain: MTSSQQRVERFLQYFSAGCKTPIHLKDGVCALYNEQDEEAAVLEVPQHSDSLLLHCRIIEADPQTSITLYSMLLQLNFEMAAMRGCWLALDELHNVRLCFQQSLEHLDEASFSDIVSGFIEHAAEVREYIAQLDESSAA
[3]
  pI (description): 4.45

B6: HrpNEch: Harpin protein from E. chrysanthemi, subfamily N (protein, listed as Erwinia chrysanthemi)
chain: MQITIKAHIGGDLGVSGLGAQGLKGLNSAASSLGSSVDKLSSTIDKLTSALTSMMFGGALAQGLGASSKGLGMSNQLGQSFGNGAQGASNLLSVPKSGGDALSKMFDKALDDLLGHDTVTKLTNQSNQLANSMLNASQMTQGNMNAFGSGVNNALSSILGNGLGQSMSGFSQPSLGAGGLQGLSGAGAFNQLGNAIGMGVGQNAALSALSNVSTHVDGNNRHFVDKEDRGMAKEIGQFMDQYPEIFGKPEYQKDGWSSPKTDDKSWAKALSKPDDDGMTGASMDKFRQAMGMIKSAVAGDTGNTNLNLRGAGGASLGIDAAVVGDKIANMSLGKLANA
[4]
  heat stable (description): heat stable
